# Measurements reported in paper PMC11404848 (2024).
# Molecular target: Sensor^BtsK (Stenotrophomonas maltophilia CGMCC …, labelled with the Monolith NT.115 Protein Labeling Kit Red NHS (a dye that reacts with amines))
# Assay: MST
binder,measurement,value
BtsD^Δ(SP-GGDEF) (domain or fragment) APPLRDYAIDVWTSRNGLPHNSLRDIAQTPEGHLWFATWEGLVRYNGLDFTVFDRSTRPGLRDNGIGALLVDRQGGLWISDSRGNVSHRGNDGQWRVWEHQADTPQVLIQSMQMDSQGRLWLLYEGKGIGYLTPDKGIVYQAPAADLPMAMSFTKLVVDAQDRVWVGTLDGLVLRDNDGVLKRAPAAWGLGAGTGLSWPYRAPDGALWIVAGERLYRVEDDQLVLVHRLPGQLHMTSMLQDRHGDLWLGTENQGLLRISAHGLERLPAGLNLPGGRVVSLREDAEGSIWVGANGGLYRLRETLFSSYTERDGLSGDYVRTVLEDRDRQLWVGSASGLDLQTPDGRFRAVPLHNRGGKAPSVLSLAQGPDGDLWVGTFGDGVYRLDRDGSLRHNYAAADGMPGGNIRAISVDPQGRVWAGTQKGVVRIDGDRVQVSTAPGMPGGLITALEHDHQGNLWIGTIEGIRVLRGDHVQSIDLAPMGGGRSVFGFHQLGEAMWISSDRGLYRWRDGKLARVGLEQGMPVDAVFQLVPDRLGNVWISSNRGVLRTDMATLNAVADGRAPRVVVERYNEIDGMANAQANGSSGPSAILRQDGTFWVVTAGGLSTVDPQRLQRFRERPSPPAAIESVQVDGAPVHWEGPDRNYIPGGRRLAVSYVGLSYLMSDRIRYRTRLEGLDAGWVERGPQRSVEFVGLPPGDYTLHVSAAHPGGAWGQQEAVWSFTVEPFWWQRRSVQLLGGLLLLAGLVVLYRLLLQQLKASNLRLARRVDEATFDLQAKTVHLQALNQEKTELAER,Kd,3.17 µM
